The subject of the data set is ATP. The experiment in a line: switch fluorescence ratio, 500 uM ATP over buffer (Cy3 cluster intensity, sum of 5 cycles each) (fold (ratio)); higher = stronger signal-on switching upon ATP binding; sequences stand for … in TCGTCGGCAGCGTCAGATGTGTATAAGAGACAGTTTTTTTTTTTTTTTTTTTTTTTTT…TC. To be noted: aptamer strand: ATP DNA aptamer (quencher-CACCTGGGGGAGTATTGCGGAGGAAGG + anchor), 100 nM annealed; ATP concentration: 500 uM. The essentials: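 Imaging in selection buffer was followed by imaging after 15 min with 500 uM ATP at 22 °C, for Cy3-labelled switching-strand clusters annealed to 100 nM quencher-labelled ATP aptamer on a modified Illumina MiSeq flow-cell. Five of these buffer/ATP cycles ran, separated by NaOH stripping and re-annealing. The fluorescence ratio per cluster is summed target-cycle over summed buffer-cycle Cy3 intensity, averaged per switch-domain sequence; clusters outside 100-1000 RFU were removed.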

± gives the standard deviation of the averaged measurements.
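Further: ATP exposure 15 min at 22 °C before imaging.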

As for CGGGATGCCT, the switch fluorescence ratio is 1 ± 0.021. As for CGGGATGGCT, the figure is 0.996 ± 0.011. With CGGGCAGATG the figure was 0.983 ± 0.028; with CGGGCCACGC, 1.04 ± 0.019. As for CGGGCCTATT, the figure is 0.98938 ± 0.00074; as for CGGGCTCCGC, 1.21 ± 0.099. On to CGGGCTCTGG, for which the switch fluorescence ratio is 1.02 ± 0.0016. Take CGGGCTGGGG: the switch fluorescence ratio amounted to 0.993 ± 0.039.

Take CGGGCTTCCT: the switch fluorescence ratio worked out at 1.21 ± 0.22. As to CGGGCTTGTG, the switch fluorescence ratio is 1 ± 0.011. In the case of CGGGGAAACA, the switch fluorescence ratio was found to be 0.9943 ± 0.0077. In the case of CGGGGAAGGG, the switch fluorescence ratio turned out to be 1.005 ± 0.0032. With CGGGGAAGTC, the switch fluorescence ratio turned out to be 1.02 ± 0.044. For the sequence CGGGGACGGG, the switch fluorescence ratio stood at 1.02 ± 0.013. For the sequence CGGGGACTTG, the switch fluorescence ratio worked out at 0.987 ± 0.029. With CGGGGAGAC the figure was 1.02 ± 0.062; with CGGGGAGACG, 0.929 ± 0.13; with CGGGGAGCCA, 1.001 ± 0.01. As for CGGGGAGGAG, the figure is 1.02 ± 0.056; as for CGGGGATACG, 1.01 ± 0.048. As for CGGGGATGTT, the switch fluorescence ratio is 0.999 ± 0.035.

With CGGGGATTCC, the switch fluorescence ratio was found to be 1.06 ± 0.031. As for CGGGGATTCG, the figure is 0.996 ± 0.026. As for CGGGGCAGGT, the figure is 1.01 ± 0.021; as for CGGGGCCGGG, 0.996 ± 0.017; as for CGGGGCGGTC, 0.96 ± 0.047.

Regarding CGGGGCGGTT, the switch fluorescence ratio amounted to 1 ± 0.032. As for CGGGGGAGAA, the figure is 1 ± 0.034; as for CGGGGGAGCG, 1 ± 0.045; as for CGGGGGAGGG, 1.16 ± 0.45. With CGGGGGATTG the figure was 0.988 ± 0.014; with CGGGGGCATG, 1.013 ± 0.0094; with CGGGGGCGAA, 0.996 ± 0.05. For the sequence CGGGGGGAAA, the switch fluorescence ratio was 1 ± 0.02.

On to CGGGGGGACA, for which the switch fluorescence ratio came to 0.968 ± 0.041. As for CGGGGGGCTG, the figure is 0.995 ± 0.04; as for CGGGGGGGA, 1.0242 ± 0.00033.

Regarding CGGGGGGGCG, the switch fluorescence ratio was 1.03 ± 0.074.

Consider CGGGGGGGCT, for which the switch fluorescence ratio amounted to 0.997 ± 0.026. Regarding CGGGGGGGTA, the switch fluorescence ratio was determined as 1 ± 0.027.

With CGGGGGGTAA, the switch fluorescence ratio was found to be 1.01 ± 0.029. As for CGGGGGTAG, the figure is 0.9982 ± 0.0021. Regarding CGGGGGTGCA, the switch fluorescence ratio was determined as 1 ± 0.0011. With CGGGGGTGG the figure was 1.02 ± 0.062. Consider CGGGGGTTCT, for which the switch fluorescence ratio was determined as 1.006 ± 0.0032. With CGGGGGTTGA the figure was 1.03 ± 0.03. As to CGGGGTAATC, the switch fluorescence ratio amounted to 1.03 ± 0.047.

Consider CGGGGTAGCT, for which the switch fluorescence ratio came out at 0.989 ± 0.035. For CGGGGTCGGA, the switch fluorescence ratio was found to be 0.999 ± 0.035.

As for CGGGGTCTGA, the switch fluorescence ratio stood at 0.953 ± 0.028.

For CGGGGTGCTG, the switch fluorescence ratio was 1.03 ± 0.03. As for CGGGGTTCCG, the figure is 0.9532 ± 0.0064; as for CGGGGTTCGG, 0.996 ± 0.023. With CGGGGTTGGC the figure was 1.02 ± 0.061; with CGGGGTTTT, 0.999 ± 0.046; with CGGGTAACGG, 1.035 ± 0.0014.

For CGGGTAATGG, the switch fluorescence ratio worked out at 1.03 ± 0.07. With CGGGTAATGT, the switch fluorescence ratio is 0.978 ± 0.029. With CGGGTAATTT the figure was 1.03 ± 0.019. As for CGGGTACATG, the figure is 1.03 ± 0.048; as for CGGGTAGTAC, 1.19 ± 0.03.

CGGGTATAGC: the switch fluorescence ratio is 0.996 ± 0.05.

Consider CGGGTATGCT, for which the switch fluorescence ratio was determined as 0.959 ± 0.025.

With CGGGTATGGA, the switch fluorescence ratio amounted to 1.02 ± 0.033. Consider CGGGTATGTA, for which the switch fluorescence ratio was 1 ± 0.0022.

In the case of CGGGTCCATT, the switch fluorescence ratio was 0.981 ± 0.0079. As for CGGGTCTGTG, the figure is 0.999 ± 0.018; as for CGGGTGAATT, 1.01 ± 0.071. For CGGGTGACGA, the switch fluorescence ratio turned out to be 1.03 ± 0.04. With CGGGTGAGCA the figure was 0.996 ± 0.026; with CGGGTGAGGT, 1 ± 0.027; with CGGGTGGGTC, 1.29 ± 0.51. With CGGGTGGTCG the figure was 0.8742 ± 0.0063; with CGGGTGTTTT, 1.055 ± 0.0089. As for CGGGTTACGA, the figure is 1.02 ± 0.028. On to CGGGTTATGT, for which the switch fluorescence ratio worked out at 0.992 ± 0.044. As for CGGGTTCAT, the figure is 1.01 ± 0.028. As for CGGGTTCGCC, the figure is 0.981 ± 0.012; as for CGGGTTGCAT, 1.023 ± 0.0087. As for CGGGTTGGGG, the figure is 1 ± 0.016; as for CGGGTTGGTC, 1.05 ± 0.041; as for CGGGTTTGGG, 0.983 ± 0.016. With CGGTAAATGT, the switch fluorescence ratio was 1.05 ± 0.071. As for CGGTAACTGG, the figure is 1.01 ± 0.048; as for CGGTACGAAT, 1.034 ± 0.0096. As to CGGTAGCGCC, the switch fluorescence ratio was determined as 0.99 ± 0.06. With CGGTAGGGGG the figure was 1.02 ± 0.049; with CGGTAGTCAG, 0.9983 ± 0.008. As for CGGTAGTTTT, the figure is 0.99 ± 0.014; as for CGGTATAAGG, 0.982 ± 0.046. In the case of CGGTATGATC, the switch fluorescence ratio was 1.02 ± 0.022. With CGGTATGGGG the figure was 1 ± 0.029. As for CGGTATGTG, the figure is 1.01 ± 0.036.

For the sequence CGGTATTGTG, the switch fluorescence ratio was determined as 0.968 ± 0.028.

Turning to CGGTCCGGCG, the switch fluorescence ratio is 1.012 ± 0.0011.

Turning to CGGTCCTTGG, the switch fluorescence ratio is 0.99 ± 0.014. For CGGTCGATCC, the switch fluorescence ratio was found to be 1 ± 0.023.

Turning to CGGTCTAGGG, the switch fluorescence ratio came to 0.995 ± 0.019. As for CGGTCTGGGG, the figure is 0.981 ± 0.027; as for CGGTCTTACT, 1.02 ± 0.02; as for CGGTGAATAC, 2.67 ± 0.064. As for CGGTGACGTT, the figure is 1.01 ± 0.028; as for CGGTGAGGAC, 0.98264 ± 0.00074; as for CGGTGATTGA, 1.004 ± 0.0023. CGGTGCGACG: the switch fluorescence ratio is 0.958 ± 0.041. With CGGTGCTATG the figure was 1 ± 0.015; with CGGTGGCTGG, 0.972 ± 0.036. With CGGTGGCTTC the figure was 1.003 ± 0.0026; with CGGTGGGTGC, 0.997 ± 0.038.

In the case of CGGTGGTGAT, the switch fluorescence ratio was 1.009 ± 0.0059.

As for CGGTGGTTGG, the switch fluorescence ratio turned out to be 1 ± 0.029.

On to CGGTGTAGAG, for which the switch fluorescence ratio stood at 0.996 ± 0.0093. Consider CGGTGTCTCA, for which the switch fluorescence ratio was 1.0117 ± 0.00057. As to CGGTGTGGGG, the switch fluorescence ratio was determined as 1.01 ± 0.032. In the case of CGGTTAGACG, the switch fluorescence ratio was found to be 0.977 ± 0.008. Consider CGGTTAGGAT, for which the switch fluorescence ratio was determined as 0.994 ± 0.0078. As to CGGTTATGTA, the switch fluorescence ratio worked out at 0.989 ± 0.034. As for CGGTTATTAG, the switch fluorescence ratio is 0.9897 ± 0.0066. With CGGTTCGGGT the figure was 0.993 ± 0.013; with CGGTTGATCG, 0.918 ± 0.036.
